One molecule from US7964369 (Stanford University, dated 2011) can be followed below.

This assay concerns the target T1, SOS vector alone (hSOS without GRAIL) (human, UniProt Q07889 1-1066).
T1 construct: Negative control bait of the yeast two-hybrid screen
T1 sequence (looked up): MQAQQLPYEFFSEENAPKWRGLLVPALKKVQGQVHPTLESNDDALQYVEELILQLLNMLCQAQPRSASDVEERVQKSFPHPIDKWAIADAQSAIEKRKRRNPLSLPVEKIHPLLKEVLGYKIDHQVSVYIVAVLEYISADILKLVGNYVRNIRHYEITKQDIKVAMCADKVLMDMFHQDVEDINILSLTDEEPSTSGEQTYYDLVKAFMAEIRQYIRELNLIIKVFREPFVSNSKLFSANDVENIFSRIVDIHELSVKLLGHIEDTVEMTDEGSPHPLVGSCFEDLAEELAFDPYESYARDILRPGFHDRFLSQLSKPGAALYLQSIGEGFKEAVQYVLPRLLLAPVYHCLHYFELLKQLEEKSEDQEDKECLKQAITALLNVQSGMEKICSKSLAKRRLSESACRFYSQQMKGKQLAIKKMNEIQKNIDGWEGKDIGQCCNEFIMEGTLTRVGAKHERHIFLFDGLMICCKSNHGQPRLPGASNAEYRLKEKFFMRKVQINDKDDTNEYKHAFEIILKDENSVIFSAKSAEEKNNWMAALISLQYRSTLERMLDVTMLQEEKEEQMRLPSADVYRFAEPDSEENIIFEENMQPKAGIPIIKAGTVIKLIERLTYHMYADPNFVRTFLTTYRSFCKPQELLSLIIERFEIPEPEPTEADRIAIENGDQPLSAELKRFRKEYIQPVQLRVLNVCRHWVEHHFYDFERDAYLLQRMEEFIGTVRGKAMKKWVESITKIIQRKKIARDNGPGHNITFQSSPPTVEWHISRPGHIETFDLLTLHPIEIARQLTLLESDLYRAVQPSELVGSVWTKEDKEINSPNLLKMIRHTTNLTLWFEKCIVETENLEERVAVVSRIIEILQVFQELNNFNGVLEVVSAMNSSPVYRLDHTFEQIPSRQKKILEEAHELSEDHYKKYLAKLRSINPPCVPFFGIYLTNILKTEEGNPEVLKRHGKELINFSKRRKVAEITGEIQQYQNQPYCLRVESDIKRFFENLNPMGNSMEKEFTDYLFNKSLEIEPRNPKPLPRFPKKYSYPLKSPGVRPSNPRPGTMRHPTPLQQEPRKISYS
Description: yeast two-hybrid (CytoTrap), secondary screen, growth on galactose at 37 C. The method, then:
Table I: A mouse liver library cloned into pMyr vector was purchased from Stratagene (La Jolla, CA). The C-terminal half of GRAIL, starting at F225 was PCR amplified, cloned into the pSOS vector, and used as bait. Yeast competent cells were co-transformed with either the bait and library or control vectors as described in the CytoTrap instruction manual (Stratagene). More than 5 x 10^5 clones were screened. Colonies displaying growth on galactose but not glucose at 37° C. were considered to be putative positives and were evaluated in a secondary screen. Colonies growing in the secondary screen on galactose at 37° C. and in the presence of the GRAIL-SOS bait vector, but not the SOS vector alone, were considered true interactors and sequenced.
Yeast and bacterial two-hybrid analysis. A mouse liver library cloned into pMyr vector was purchased from Stratagene (La Jolla, Calif.). The C-terminal half of Grail, starting at F225, was PCR amplified, cloned into the pSOS vector, and used as bait. Yeast competent cells were co-transformed with either the bait and library or control vectors as described in the CytoTrap instruction manual (Stratagene). More than 5 ×10^5 clones were screened. Colonies displaying growth on galactose but not glucose at 37° C. were considered to be putative positives and were used on a secondary screen. […]

B1: clone 6A-36 (98% identical to human FLJ20113, OTUBAIN-1) (enzyme, mouse, UniProt Q7TQI3 97-271, looked up)
chain: GFSHLEALLDDSKELQRFKAVSAKSKEDLVSQGFTEFTIEDFHNTFMDLIEQVEKQTSVADLLASFNDQSTSDYLVVYLRLLTSGYLQRESKFFEHFIEGGRTVKEFCQQEVEPMCKESDHIHIIALAQALSVSIQVEYMDRGEGGTTNPHVFPEGSEPKVYLLYRPGHYDILYK
notes: Partial clone of mouse otubain-1; also called 525 bp insert; 525 bp cDNA fragment; not shown: myristoylation signal of the pMyr plasmid
With B1, the binding result was “no binding”.
